Laboratory results published in US10640563B2, “Anti-B7-H3 antibodies and antibody drug conjugates” (AbbVie Inc., priority 2016, dated 2020).
Marks after values point to notes of the source that are not given here.

Tests used:
H1299 = test: In vivo xenograft model of non-small cell lung cancer H1299; details: NCI-H1299; 7.5 mg/kg/day, QDx1/IV
Protocol: (§1) The anti-tumor activity was assessed as monotherapy and in combination with docetaxel (H1650, H1299, H1975, and EBC1).

EBC1 = test: In vivo xenograft model of non-small cell lung cancer EBC1; details: 7.5 mg/kg/day, QDx1/IV
Protocol: as §1

H1650 = test: In vivo xenograft model H1650; set-up: species or system mouse; details: NCI-H1650, 7.5 mg/kg/day
H1975 = test: In vivo xenograft model of non-small cell lung cancer H1975; details: NCI-H1975; 7.5 mg/kg/day, QDx1/IV
Protocol: as §1

[1] = target: T1, soluble ECD of human B7-H3 (Homo sapiens, UniProt Q5ZPR3); test: Biacore T200 SPR binding kinetics, mAb capture; details: Biacore T200, Fc capture of mAb, B7-H3 ECD as analyte, 1:1 binding model
T1 construct: His tag (6xHis) (C); made in house
T1 sequence (Q5ZPR3 with tags, fused parts or gaps): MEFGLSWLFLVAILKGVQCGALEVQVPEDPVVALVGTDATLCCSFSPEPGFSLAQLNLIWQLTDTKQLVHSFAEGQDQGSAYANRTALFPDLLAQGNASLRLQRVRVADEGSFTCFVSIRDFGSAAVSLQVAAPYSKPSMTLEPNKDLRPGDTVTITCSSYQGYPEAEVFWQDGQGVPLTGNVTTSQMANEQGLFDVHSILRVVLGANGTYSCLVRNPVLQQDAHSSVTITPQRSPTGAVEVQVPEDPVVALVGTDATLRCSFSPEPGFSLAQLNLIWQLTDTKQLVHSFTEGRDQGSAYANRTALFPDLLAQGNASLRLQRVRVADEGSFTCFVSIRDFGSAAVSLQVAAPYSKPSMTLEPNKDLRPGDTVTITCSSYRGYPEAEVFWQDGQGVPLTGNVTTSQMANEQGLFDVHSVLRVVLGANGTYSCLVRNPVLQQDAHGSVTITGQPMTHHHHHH
Protocol: The binding affinity of the purified anti-B7-H3 monoclonal antibodies was determined by surface […]. […] The binding kinetics were derived from SPR measurements using a Biacore T200 instrument and a mAb capture approach (as described in the materials and methods below).
Biacore T200 SPR instruments were used to measure the binding kinetics of human B7-H3 (analyte) binding to various mAbs (ligands). The assay format was Fc-based capture via immobilized anti-mouse (Fc) (Pierce 31170) or immobilized anti-human (Fc) (Pierce 31125). A standard amine coupling protocol was employed to immobilize the capture reagents via primary amines to the carboxy-methyl (CM) dextran surface of CM5 sensorchips (Biacore); capture antibodies were coupled to a level of approximately 5000 RU. For binding kinetic measurements the assay buffer was HBS-EP+ (Biacore): 10 mM Hepes, pH7.4, 150 mM NaCl, 3 mM EDTA, 0.05% polysorbate 20. During the assay, all measurements were referenced against the capture surface alone. Each assay cycle consisted of the following steps: 1) Capture of ligand to approximately 50 RU; 2) Analyte injection over both reference and test surface, 240 μL at 80 μL/min, after which the dissociation was monitored for 900 seconds at 80 μL/min; 3) Regeneration of capture surface with low pH glycine. For kinetic determinations analyte injections were 3-point, 9-fold dilution series of 900 nM, 100 nM and 11.11 nM, buffer only injections were included for secondary referencing. Data were processed and fit to a 1:1 binding model using Biacore T200 Evaluation Software to determine the binding kinetic rate constants, ka (on-rate) and kd (off-rate), and the equilibrium dissociation constant (affinity, KD).

mouse B7-H3 = target: T2, mouse B7-H3 (Mus musculus, UniProt Q8VE98); test: FACS binding to mouse 3T12 fibroblasts expressing mouse B7-H3; details: purified mouse hybridoma mAb; cells expressing mouse B7-H3
T2 construct: expressed in transfected cells; host or cells: mouse 3T12 fibroblasts
T2 sequence (Q8VE98 29-316): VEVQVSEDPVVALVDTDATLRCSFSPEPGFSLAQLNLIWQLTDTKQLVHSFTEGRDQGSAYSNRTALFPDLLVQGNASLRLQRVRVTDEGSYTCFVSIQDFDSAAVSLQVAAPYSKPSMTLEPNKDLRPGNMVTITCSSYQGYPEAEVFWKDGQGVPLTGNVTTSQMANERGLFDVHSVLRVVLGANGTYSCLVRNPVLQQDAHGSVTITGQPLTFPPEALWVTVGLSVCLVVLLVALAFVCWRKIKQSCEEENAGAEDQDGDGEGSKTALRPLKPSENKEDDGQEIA

[2] = tested on: soluble ECD of cyno B7-H3; test: Biacore T200 SPR binding kinetics, mAb capture; set-up: species or system cynomolgus monkey; details: Biacore T200, Fc capture of mAb, B7-H3 ECD as analyte, 1:1 binding model
H847 cells = test: Cell cytotoxicity of ADCs in H847 cells; format: cell-based; details: Table 17; CZ conjugates; read-out: Cytotoxicity (H847 Cell line IC50)
Source text: These new anti-B7-H3 antibodies were further characterized for binding by SPR and conjugated to the Bcl-xLi synthon CZ and assessed for cell cytotoxicity (using the methods described in Example 7).

B7-H3 = target: T3, B7-H3 (Homo sapiens, UniProt Q5ZPR3); test: Affinity of naked mAbs by SPR (Biacore); format: binding; details: Table 17
T3 construct: His tag (6xHis) (C); made in house
T3 sequence (Q5ZPR3 with tags, fused parts or gaps): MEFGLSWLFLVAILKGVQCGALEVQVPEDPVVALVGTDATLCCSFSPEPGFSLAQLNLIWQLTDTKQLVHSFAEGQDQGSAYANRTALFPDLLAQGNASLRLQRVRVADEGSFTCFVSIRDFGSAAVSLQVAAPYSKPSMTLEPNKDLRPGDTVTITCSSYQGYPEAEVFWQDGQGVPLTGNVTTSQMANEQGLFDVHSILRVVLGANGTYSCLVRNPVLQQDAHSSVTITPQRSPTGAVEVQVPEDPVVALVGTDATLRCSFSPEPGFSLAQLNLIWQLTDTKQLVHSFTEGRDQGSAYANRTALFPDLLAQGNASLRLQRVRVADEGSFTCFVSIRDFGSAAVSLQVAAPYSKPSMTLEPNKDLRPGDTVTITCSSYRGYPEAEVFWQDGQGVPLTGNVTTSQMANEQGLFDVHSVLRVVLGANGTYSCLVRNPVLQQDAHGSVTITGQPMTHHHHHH
Protocol: The parental chAb18 from which the variants were derived was also tested as a comparator.

[3] = Aggregation of conjugates by SEC; format: physicochemical; details: Table 17; CZ conjugates of huAb3v2 variants
NCI-H146 cells = test: In vivo xenograft model of small cell lung cancer (NCI-H146); set-up: species or system mice; details: Table 23; 6 mg/kg/IP/QDx1

Chain of soluble ECD of cyno B7-H3 (as listed by the source): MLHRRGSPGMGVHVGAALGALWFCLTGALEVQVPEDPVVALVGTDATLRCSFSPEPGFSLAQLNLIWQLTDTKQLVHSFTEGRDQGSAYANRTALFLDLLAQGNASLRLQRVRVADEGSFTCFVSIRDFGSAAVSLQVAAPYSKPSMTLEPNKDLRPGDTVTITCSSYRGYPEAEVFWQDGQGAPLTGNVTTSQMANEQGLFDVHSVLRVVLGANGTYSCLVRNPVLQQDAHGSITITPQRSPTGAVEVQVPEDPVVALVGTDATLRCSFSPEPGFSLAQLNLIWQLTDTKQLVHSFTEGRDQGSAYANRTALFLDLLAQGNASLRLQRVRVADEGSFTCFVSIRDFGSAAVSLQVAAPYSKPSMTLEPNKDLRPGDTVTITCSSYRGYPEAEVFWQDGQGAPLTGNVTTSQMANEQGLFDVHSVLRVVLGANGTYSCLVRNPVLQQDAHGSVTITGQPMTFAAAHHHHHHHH

For `CC(=O)O[C@@]12CO[C@@H]1C[C@H](O)[C@@]1(C)C(=O)[C@H](O)C3=C(C)[C@@H](OC(=O)[C@H](O)[C@@H](NC(=O)OC(C)(C)C)c4ccccc4)C[C@@](O)([C@@H](OC(=O)c4ccccc4)[C@H]21)C3(C)C` [Docetaxel], the “TGD (%)” value (H1299) was 48%, the “TGImax (%)” value (H1299) was 87% and the “TGD (%)” value (EBC1) was 80%. For the same molecule, the “TGImax (%)” value (EBC1) was 85%, the “TGD (%)” value (H1650; IV/Q14Dx3) was 158* % and the “TGImax (%)” value (H1650; IV/Q14Dx3) was 80* %. For the same molecule, the “TGD (%)” value (H1650; QDx1/IV) was 143%, the “TGImax (%)” value (H1650; QDx1/IV) was 84% and the “TGD (%)” value (H1975) was 77%. The “TGImax (%)” value (H1975) was 81%.

B1: Ab18: murine monoclonal Ab18 (antibody, V domains shown)
VH: QVQLQQSAAELARPGASVKMSCKASGYSFTSYTIHWVKQRPGQGLEWIGYINPNSRNTDYNQKFKDETTLTADRSSSTAYMQLISLTSEDSAVYYCARYSGSTPYWYFDVWGAGTTVTVSS
VL: QIVLTQSPAILSASPGEKVTMTCRASSSVSYMNWYQQKPGSSPKPWIYATSNLASGVPARFSVSVSGTSHSLTISRVEAEDAATYYCQQWSSNPLTFGAGTKLELK
With B1 the “huB7-H3 ka” value [1] was 210000 M⁻¹ s⁻¹, the “huB7-H3 kd” value [1] was 3.6e-05 s⁻¹ and the “FACS Binding (EC50 nM) Mouse B7-H3” value (mouse B7-H3) was “No binding”. For the same molecule, the “cynoB7-H3 ka” value [2] was 240000 M⁻¹ s⁻¹ and the “cynoB7-H3 kd” value [2] was 2.9e-05 s⁻¹.

B2: huAb3v2.8-CZ (conjugate)
VH: EVQLVQSGAEVKKPGSSVKVSCKASGYTFSSYWMHWVRQAPGQGLEWIGLIHPISGSTNYNEMFKNRATLTVDRSTSTAYMELSSLRSEDTAVYYCAGGGRLYFDYWGQGTTVTVSS
VL: DIVMTQSPLSLPVTPGEPASISCRSSQSLVHSNRDTYLRWYLQKPGQSPQLLIYKVSNRFSGVPDRFSGSGSGTDFTLKISRVEAEDVGVYYCSQSTHVPYTFGGGTKVEIK
In the case of B2, the IC50 (H847 cells) is reported as 2.36 nM, the “Affinity of naked mAbs (Biacore, KD)” value (B7-H3) is reported as “Poor fit” and the “% agg by SEC” value [3] is reported as 5.7%.

B3: huAb3v2.9-CZ (conjugate)
VH: EVQLVQSGAEVKKPGSSVKVSCKASGYTFSSYWMHWVRQAPGQGLEWIGLIHPISGSTNYNEMFKNRATLTVDRSTSTAYMELSSLRSEDTAVYYCAGGGRLYFDYWGQGTTVTVSS
VL: DIVMTQSPLSLPVTPGEPASISCRSSQSLVHSNQDTYLRWYLQKPGQSPQLLIYKVSNRFSGVPDRFSGSGSGTDFTLKISRVEAEDVGVYYCSQSTHVPYTFGGGTKVEIK
With B3 the IC50 (H847 cells) was 2.3 nM, the “Affinity of naked mAbs (Biacore, KD)” value (B7-H3) was “Poor fit” and the “TGD (%)” value (NCI-H146 cells) was 135%. The “TGImax (%)” value (NCI-H146 cells) was 94% and the “% agg by SEC” value [3] was 4.3%.

B4: Ab6 (antibody, V domains shown)
VH: QVQLQQSGAELMKPGASVKISCKATGYTFSRYWIEWVKQRPGHGLEWIGEILPGSGSTNYNEKFKGKATFTADTSSNTAYMQVSSLTSEDSAVHYCARRGYGYVPYALDYWGQGTSVTVSS
VL: EIQMTQTTSSLSASLGDRVTISCRASQDISNSLNWYQQKPDGTVNLLIYYTSRLYSGVPSRFSGSGSGTDYSLTISNLEQEDIATYFCQQGNTLPYTFGGGTKLEIK
In the case of B4, the “huB7-H3 ka” value [1] is reported as 12000 M⁻¹ s⁻¹, the “huB7-H3 kd” value [1] is reported as 0.01 s⁻¹ and the “FACS Binding (EC50 nM) Mouse B7-H3” value (mouse B7-H3) is reported as “No binding”. The “cynoB7-H3 ka” value [2] was 28000 M⁻¹ s⁻¹ and the “cynoB7-H3 kd” value [2] was 0.012 s⁻¹.
